Patent US20140087995A1 (published 2014)
Numbered stars: 1 amine (or outer) side, 2 acyl side, 3 side chain; on linkers, the order of the positions; unused ones are H or OH. Bridge positions count the residues as written; N and C are the ends. * marks the point of attachment. C20 diacid = O=C(O)CCCCCCCCCCCCCCCCCCC(=O)*; γGlu = O=C(O)[C@H](CCC(=O)[*:2])N[*:1]; AEEA = NCCOCCOCC(=O)O

T1: human amylin 3(a) receptor (human calcitonin receptor plus RAMP-3) (human, UniProt P30988 25-474; O60896 24-148, limits assumed)
T1 sequence (looked up) 1: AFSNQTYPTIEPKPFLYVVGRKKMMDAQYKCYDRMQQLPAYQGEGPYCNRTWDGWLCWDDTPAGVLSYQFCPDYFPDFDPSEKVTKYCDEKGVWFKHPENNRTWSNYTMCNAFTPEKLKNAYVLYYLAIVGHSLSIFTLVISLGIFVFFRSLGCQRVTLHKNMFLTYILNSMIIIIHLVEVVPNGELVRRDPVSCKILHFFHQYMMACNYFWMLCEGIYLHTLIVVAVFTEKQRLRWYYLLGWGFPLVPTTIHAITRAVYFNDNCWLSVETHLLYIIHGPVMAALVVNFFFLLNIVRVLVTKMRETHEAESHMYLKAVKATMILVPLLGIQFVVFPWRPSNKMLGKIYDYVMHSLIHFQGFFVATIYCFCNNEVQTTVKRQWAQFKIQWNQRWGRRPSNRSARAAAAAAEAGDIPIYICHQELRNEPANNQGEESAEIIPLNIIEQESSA
T1 sequence (looked up) 2: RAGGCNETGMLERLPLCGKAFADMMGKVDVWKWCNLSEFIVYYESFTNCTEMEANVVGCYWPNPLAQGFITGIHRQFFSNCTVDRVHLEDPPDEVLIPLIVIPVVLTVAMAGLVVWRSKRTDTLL

T2: human calcitonin receptor (human, UniProt P30988 25-474)
T2 sequence (looked up): T1 sequence (looked up) 1

B1: N^α1-[(4S)-4-carboxy-4-(19-carboxynonadecanoylamino)butanoyl]-[Glu14,Arg17,Pro21,Pro27]-h-amylin (peptide)
peptide: KCNTATCATQRLAEFLRHSSPNFGAIPSSTNVGSNTY
modifications: C20 diacid-gGlu on the alpha amino group of the N-terminal residue (position 1); disulfide bridge Cys2-Cys7; C-terminal amide
notes: also called compound 9
B2: N^α1-[(4S)-4-carboxy-4-(19-carboxynonadecanoylamino)butanoyl]-[Glu14,Arg17,Pro21,Pro25,Pro28,Pro29]-h-amylin (peptide)
peptide: {C20 diacid-γGlu}-KCNTATCATQRLAEFLRHSSPNFGPILPPTNVGSNTY-NH2
modifications: disulfide 2-7
SMILES: CC[C@H](C)[C@H](NC(=O)[C@@H]1CCCN1C(=O)CNC(=O)[C@H](Cc1ccccc1)NC(=O)[C@H](CC(N)=O)NC(=O)[C@@H]1CCCN1C(=O)[C@H](CO)NC(=O)[C@H](CO)NC(=O)[C@H](Cc1c[nH]cn1)NC(=O)[C@H](CCCNC(=N)N)NC(=O)[C@H](CC(C)C)NC(=O)[C@H](Cc1ccccc1)NC(=O)[C@H](CCC(=O)O)NC(=O)[C@H](C)NC(=O)[C@H](CC(C)C)NC(=O)[C@H](CCCNC(=N)N)NC(=O)[C@H](CCC(N)=O)NC(=O)[C@@H](NC(=O)[C@H](C)NC(=O)[C@@H]1CSSC[C@H](NC(=O)[C@H](CCCCN)NC(=O)CC[C@H](NC(=O)CCCCCCCCCCCCCCCCCCC(=O)O)C(=O)O)C(=O)N[C@@H](CC(N)=O)C(=O)N[C@@H]([C@@H](C)O)C(=O)N[C@@H](C)C(=O)N[C@@H]([C@@H](C)O)C(=O)N1)[C@@H](C)O)C(=O)N[C@@H](CC(C)C)C(=O)N1CCC[C@H]1C(=O)N1CCC[C@H]1C(=O)N[C@H](C(=O)N[C@@H](CC(N)=O)C(=O)N[C@H](C(=O)NCC(=O)N[C@@H](CO)C(=O)N[C@@H](CC(N)=O)C(=O)N[C@H](C(=O)N[C@@H](Cc1ccc(O)cc1)C(N)=O)[C@@H](C)O)C(C)C)[C@@H](C)O
notes: also called compound 6
B3: N^α1-[(4S)-4-carboxy-4-(19-carboxynonadecanoylamino)butanoyl]-[Glu14,Arg17,Pro21,Pro26,Pro37]-h-amylin (peptide)
peptide: {C20 diacid-γGlu}-KCNTATCATQRLAEFLRHSSPNFGAPLSSTNVGSNTP-NH2
modifications: disulfide 2-7
SMILES: CC(C)C[C@H](NC(=O)[C@H](CCCNC(=N)N)NC(=O)[C@H](CCC(N)=O)NC(=O)[C@@H](NC(=O)[C@H](C)NC(=O)[C@@H]1CSSC[C@H](NC(=O)[C@H](CCCCN)NC(=O)CC[C@H](NC(=O)CCCCCCCCCCCCCCCCCCC(=O)O)C(=O)O)C(=O)N[C@@H](CC(N)=O)C(=O)N[C@@H]([C@@H](C)O)C(=O)N[C@@H](C)C(=O)N[C@@H]([C@@H](C)O)C(=O)N1)[C@@H](C)O)C(=O)N[C@@H](C)C(=O)N[C@@H](CCC(=O)O)C(=O)N[C@@H](Cc1ccccc1)C(=O)N[C@@H](CC(C)C)C(=O)N[C@@H](CCCNC(=N)N)C(=O)N[C@@H](Cc1c[nH]cn1)C(=O)N[C@@H](CO)C(=O)N[C@@H](CO)C(=O)N1CCC[C@H]1C(=O)N[C@@H](CC(N)=O)C(=O)N[C@@H](Cc1ccccc1)C(=O)NCC(=O)N[C@@H](C)C(=O)N1CCC[C@H]1C(=O)N[C@@H](CC(C)C)C(=O)N[C@@H](CO)C(=O)N[C@@H](CO)C(=O)N[C@H](C(=O)N[C@@H](CC(N)=O)C(=O)N[C@H](C(=O)NCC(=O)N[C@@H](CO)C(=O)N[C@@H](CC(N)=O)C(=O)N[C@H](C(=O)N1CCC[C@H]1C(N)=O)[C@@H](C)O)C(C)C)[C@@H](C)O
notes: also called compound 5
B4: N^α1-[(4S)-4-carboxy-4-(19-carboxynonadecanoylamino)butanoyl]-[Glu14,Arg17,Pro21,Pro25,Pro28,Pro29,Pro37]-h-amylin (peptide)
peptide: {C20 diacid-γGlu}-KCNTATCATQRLAEFLRHSSPNFGPILPPTNVGSNTP-NH2
modifications: disulfide 2-7
SMILES: CC[C@H](C)[C@H](NC(=O)[C@@H]1CCCN1C(=O)CNC(=O)[C@H](Cc1ccccc1)NC(=O)[C@H](CC(N)=O)NC(=O)[C@@H]1CCCN1C(=O)[C@H](CO)NC(=O)[C@H](CO)NC(=O)[C@H](Cc1c[nH]cn1)NC(=O)[C@H](CCCNC(=N)N)NC(=O)[C@H](CC(C)C)NC(=O)[C@H](Cc1ccccc1)NC(=O)[C@H](CCC(=O)O)NC(=O)[C@H](C)NC(=O)[C@H](CC(C)C)NC(=O)[C@H](CCCNC(=N)N)NC(=O)[C@H](CCC(N)=O)NC(=O)[C@@H](NC(=O)[C@H](C)NC(=O)[C@@H]1CSSC[C@H](NC(=O)[C@H](CCCCN)NC(=O)CC[C@H](NC(=O)CCCCCCCCCCCCCCCCCCC(=O)O)C(=O)O)C(=O)N[C@@H](CC(N)=O)C(=O)N[C@@H]([C@@H](C)O)C(=O)N[C@@H](C)C(=O)N[C@@H]([C@@H](C)O)C(=O)N1)[C@@H](C)O)C(=O)N[C@@H](CC(C)C)C(=O)N1CCC[C@H]1C(=O)N1CCC[C@H]1C(=O)N[C@H](C(=O)N[C@@H](CC(N)=O)C(=O)N[C@H](C(=O)NCC(=O)N[C@@H](CO)C(=O)N[C@@H](CC(N)=O)C(=O)N[C@H](C(=O)N1CCC[C@H]1C(N)=O)[C@@H](C)O)C(C)C)[C@@H](C)O
notes: also called compound 4
B5: N^α1-[2-[2-[2-[[2-[2-[2-[[(4S)-4-carboxy-4-(19-carboxynonadecanoylamino)butanoyl]amino]ethoxy]ethoxy]acetyl]amino]ethoxy]ethoxy]acetyl]-[Glu14,Arg17,Pro21,Pro27 … (peptide)
peptide: {C20 diacid-γGlu-AEEA-AEEA}-KCNTATCATQRLAEFLRHSSPNFGAIPSSTNVGSNTP-NH2
modifications: disulfide 2-7
SMILES: CC[C@H](C)[C@H](NC(=O)[C@H](C)NC(=O)CNC(=O)[C@H](Cc1ccccc1)NC(=O)[C@H](CC(N)=O)NC(=O)[C@@H]1CCCN1C(=O)[C@H](CO)NC(=O)[C@H](CO)NC(=O)[C@H](Cc1c[nH]cn1)NC(=O)[C@H](CCCNC(=N)N)NC(=O)[C@H](CC(C)C)NC(=O)[C@H](Cc1ccccc1)NC(=O)[C@H](CCC(=O)O)NC(=O)[C@H](C)NC(=O)[C@H](CC(C)C)NC(=O)[C@H](CCCNC(=N)N)NC(=O)[C@H](CCC(N)=O)NC(=O)[C@@H](NC(=O)[C@H](C)NC(=O)[C@@H]1CSSC[C@H](NC(=O)[C@H](CCCCN)NC(=O)COCCOCCNC(=O)COCCOCCNC(=O)CC[C@H](NC(=O)CCCCCCCCCCCCCCCCCCC(=O)O)C(=O)O)C(=O)N[C@@H](CC(N)=O)C(=O)N[C@@H]([C@@H](C)O)C(=O)N[C@@H](C)C(=O)N[C@@H]([C@@H](C)O)C(=O)N1)[C@@H](C)O)C(=O)N1CCC[C@H]1C(=O)N[C@@H](CO)C(=O)N[C@@H](CO)C(=O)N[C@H](C(=O)N[C@@H](CC(N)=O)C(=O)N[C@H](C(=O)NCC(=O)N[C@@H](CO)C(=O)N[C@@H](CC(N)=O)C(=O)N[C@H](C(=O)N1CCC[C@H]1C(N)=O)[C@@H](C)O)C(C)C)[C@@H](C)O
notes: also called compound 20

target: T1, human amylin 3(a) receptor (human …); assay: cell-based or functional assay

Binder	Ratio hCT/hAmylin funct.	hAmylin-R funct. EC50
B1	7.4	0.175 nM
B2	5.7	0.128 nM
B3	1	0.162 nM
B4	1.2	0.06 nM
B5	3.6	0.08 nM

target: T2, human calcitonin receptor; assay: cell-based or functional assay

Binder	hCTR funct. EC50
B1	1.29 nM
B2	0.729 nM
B3	0.16 nM
B4	0.07 nM
B5	0.285 nM

target: T1, human amylin 3(a) receptor (human …); assay: SPA competition binding, displacement of 125I-rat amylin from membranes of Amylin 3(a)/CRE-luc BHK cells (Assay V)
Description: The binding assay was performed using scintillation proximity assay (SPA) beads (RPNQ0001) from PerkinElmer and cell membranes from the Amylin 3(a)/CRE-luc cells (as described in Assay (II)) were used. Membranes were prepared in the following way; the cells were rinsed with PBS and incubated with Versene for approximately 5 min before harvesting. The cells were flushed with PBS and the cell-suspension was centrifuged for 5 min at 1000 rpm. Cells were homogenized (ultrathurrax) in a buffer containing 20 mM Na-HEPES and 10 mM EDTA (pH 7.4) and centrifuged at 20.000 rpm for 15 min. The resulting pellet was resuspended, homogenized and centrifuged (20.000 rpm, 15 min) in a buffer containing 20 mM Na-HEPES and 0.1 mM EDTA (pH 7.4, buffer 2). The resulting pellet was resuspended in buffer 2 and protein concentration was measured (BCA protein Assay, Pierce). The homogenate was kept cold during the whole procedure. The membranes were kept at −80° C. until use. The assay was performed in a 384 well Optiplate (PerkinElmer) in a total volume of 40 ul. Membranes were mixed with SPA beads. Final concentration of membranes 35 ng/μL final and SPA beads was 0.05 mg/well. Test-compounds were dissolved in DMSO and further diluted in assay buffer (50 mM Hepes, pH 7.4, 1 mM CaCl2, 5 mM MgCl₂, 0.1% OA and 0.02% Tween20). […] The final mixture was incubated with shaking at 400 rpm for 120 min at 25° C. prior to centrifugation (1500 rpm, 10 min). Samples were analyzed on TopCounter™ (Packard). The IC₅₀ was calculated using (one site binding competition analysis) GraphPad Prism5 as a measure of receptor affinity.

Binder	IC50
B1	0.143 nM
B2	0.996 nM
B3	0.374 nM
B4	0.321 nM
B5	0.217 nM
